Measurements taken from the DeepSol protein solubility set.

assay: soluble on expression in E. coli; label from the status in PepcDB or PDB records

Sequence	soluble on expression in E. coli
IALENTIEQRLAADVATLVSAARVEKGRLVMPEHLPVEEFNLPEAKVLGYIYDQNGDLLWRSTSAADESINYTPRYDGRGNEFHTTRDAKGEEFFVFDVEIDLLRGKQAAYSIVTMQSVSEFESLLKGFREQL	not soluble
MGSDKIHHHHHHMVNAAQAVMESSGQFHVEPEGVIRMSVPKAVGHFMIHPHLPEFLERYPKIDIQMLLEDRYVDLIDDGVDLALRITEQPPGGLMGRKLIDIDHLVCATPEYLSKHGTPNHPHDLKQHECIYLGEQASDSKWKFQQGNKSISVAVRGRYAANHTGVRLSAALQHLGIASLPYFVARHALQQGTLVQVLPDWYFKTYYSGGLWLLYPPTRHVQPKLSVLIQYLADKLAAEPTLFKLK	not soluble
MGSDKIHHHHHHLLQAELGITSQRHFYSIGHLFPCGQLLERSRFNRRSKQLIWLVQFIRKAMSEMLPSDKLAIIDSFPLPLCQPVRNHRASIFKGLADIGYNASKHLWFYGFKVHMLVTLSGYILNYVVTPASVHDIKVVYELLEGCKQSVILGDLGYLSSELKKDLEQEGYHLWTPFRKNMTGAEEHNNWKVMAMRRTIETRFSELCRLFDIEHTLTRSLAGLQLRMEQIILAHNLRYFEMN	not soluble
MGSDKIHHHHHHVKSELIWSKALETSRKAIDCAAVIPLETYKYKSIKKCFDFELRFLKRTFPKNLIDYGPKANPFIPWDRRLEVQAVNDNYTIILNKYPVQLGHLLLISNYWKPQNSWLSIDDFEAIAKVDNDTTGLWFFNSSKDAGASQPHRHFQLLRRDKYENICPRYEWFCSLLNNSEGFNSDIKQCISIKPRKSKLDIDAHDLFNSYKSMIIEMDLGNINNDDKPLKPYNLLITEKWISLIVRSKDRAHGFGINALGFAGYFLGTRRSDIDMLIKFGPESILKDVI	not soluble
MTSSDLPVMLFAAGFGTRMGDLTRTRPKPLIEVAGRPLVDHTLDLARAVSPPRIVANLHYLAPLLAAHLAPQGVLLSHEQPDILDTGGGLRQALPLLAAETVFTANSDAIWSGPNPFALLAEAWEPARMDALLMCVPVGQAIGHAGHGDFSRDAQGRIERGPGLIYGGVQIVKTGGLGDFDMPAFSLNLLWNRIGAAGRLFALEYPGRWCDVGHPGGIALAEEMLRDVLEHHHHHH	soluble
ASRPHQWQTDEEGVRTGKCSFPVKYLGHVEVDESRGMHICEDAVKRLKATGKKAVKAVLWVSADGLRVVDEKTKDLIVDQTIEKVSFCAPDRNFDRAFSYICRDGTTRRWICHCFMAVKDTGERLSHAVGCAFAACLERKQKR	soluble
MGSDKIHHHHHHMDTELARTFLTVAATGNFVAAASRLHVTQSTVSARIQTLETTLGARLFQRGRNGAELTASGKRFLRHAKHLVRTVEQALHDVGLPQGFHDVLTLSGRIALWEGFLPHWVAWMREAAPDVSLRLEIGFEADIMQGLIEGTTDIGVMYTPTSRPGLVVEPLFDENLMLVTSDLARGWPEEGYIHIDWGPEFHAQFSDHFPDAPPPTVVANIGWLGVQQLLTYGGSGYFPQRLVRQLIEDGRLWRVPDSPQFKLTAWMVFPREGSATLKSALDGLRTLARDEQARL	not soluble
MGSDKIHHHHHHMIRVLSVFGTRPEAIKMAPLVKKLEEEQNVESLVCVTAQHRQMLDQVLEVFDIKPDFDLNIMKERQNLSDITVNALSGLYDLIGELKPDIVLVQGDTTTTFAGALAAFYHRIPVGHVEAGLRTNDRYSPFPEEINRRLTGVLSTLHFAPTKRNRENLLKENVMGKIYVTGNTVIDALRYTVKENHVFEDPILRNMDFSDGRYILLTSHRRENIGKPLENICRAVRRIVEGFEDVKVIYPVHMNPAVREIVFPMLENVERVFLIDPVNVIDMHNLMARSYLIMTDSGGIQEEAPALGKPVIVLRKETERPEAIEAGVAVLGGVEEERIFELAKKLLVDREEYEKMAKAVNPFGDGRASERIVKAILHEFGLSDPPEEFC	not soluble
MKYKIIVIDVFNTLLNNKYELTEENRNALLYIQKELGIRVVLTSGRTVAALKPLAEELNLREYSGYLIPYHGGQIVNCRSGKVIASHRMATSFVEVLDARARAEGVTLLAFGKDSIFSTDPHDPLAVKESDICGQPLVSKHPRSSEVIKCSFVGEAEKIAELEVVMRRDYGDKLNIFRSSETLLECLPSE	not soluble
MGSDKIHHHHHHVAKPKTVYICSECGGQSPKWAGQCPSCNAWNTLVESVAEAPSTHRFQSLAKSAPVRRLADIEASDVPRFTTGVSEFDRVLGGGLVPGGVVLIGGDPGIGKSTLLLQSLAEIAADKRALYISGEESAAQIALRAQRLSLLEPGSRASELQLLAEIQLEKIQATIAEQRPDVAVIDSIQTVYSDALTSAPGSVAQVRECAAQLTRIAKQSGTTIIMVGHVTKEGALAGPRVLEHIVDTVLYFEGDTHSSYRLVRAIKNRFGAVNELGVFAMTERGLRGVANPSALFLSQHEQSVAGSCVLVTQEGTRPLLVEVQALVDAANAPNPRRLAVGLEQNRLAMLLAVLHRHAGIACFDQDVFLNAVGGVKITEPAADLAVLLAIHSSMRNKPLPKGLVVFGEVGLAGEIRPSPRGQERLKEAAKLGFSVAVIPRANAPKQPIEGLQVVAVERIEQAIDRVRTLE	not soluble
MSLTNFSQQHLPLVEKVMVDFIAEYTENERLKEAMLYSIHAGGKRLRPLLVLTTVAAFQKEMETQDYQVAASLEMIHTYSLIHDDLPAMDDDDLRRGKPTNHKVFGEATAILAGDGLLTGAFQLLSLSQLGLSEKVLLMQQLAKAAGNQGMVSGQMGDIEGEKVSLTLEELAAVHEKKTGALIEFALIAGGVLANQTEEVIGLLTQFAHHYGLAFQIRDDLLDATSTEADLGKKVGRDEALNKSTYPALLGIAGAKDALTHQLAEGSAVLEKIKANVPNFSEEHLANLLTQLQLREGHHHHHH	soluble
MSLERSLSVTILFQDVPVSVWEINKNTPQPDWVKNCFENNTMVWYDNRLKILVKAINPSPKRDVKLGLRDTMLGYYGGGFVMGNIGDYFDATNGRVLSKKKFYKQYVINEEGHHHHHH	not soluble
MSLRKGSMRITPLGGLGEIGRNMNVIEYNGHLLLIDCGVLFPEEEQPGVDLILPDFSYIKNRLDKVDALVLTHGHEDHIGGVPYLLKLRPDIPLIGSKLTLAFVDAKCKEHHQNPTKVEVAGREKLKVGPFDLEFVNVTHSIPDALAVYVKTPAGSLIDTGDIKLDQLPLDHRITDLVEFGKIGEKGVDLLMMDSTNAEVPGFVKPETSIGPALDQAFAQATRKIIVASFSSHVHRVQQVVDAAHKYGRKVVFVGRSMVRNMSIAADLGYLHIPEGTVVDLKQANDIQDDKLVFMCTGSQGEPMAALGRIADGNHRDIHINEFDTVILASSLIPGNEHGVYKVINKLVQLGAKVVNRDNAAVHVSGHCNEGELLYMYNIVKPKCAMPIHGENRHLVANGLIAVKTGVDPQNVVLAEDGDVVDLYHGRAAVVGSVPCGYVYVDGDSVGELTDDELEKRRILGTEGFVSAFVVVDTDNHEVVTGPKIYLNAVAEDESEFDKVRHQIVEQLNDQMMQGTRDTYKLQQTMRRTLGSWVARQLHRKPMIVPVVADIAQDVETVETKEGHHHHHH	soluble
MGSDKIHHHHHHMKTLVICSGGLDSVSLAHKVAAEHDLIGLISFDYGQRHRKELDFAARAATRLGVPHDLIDMRQIGAHLSGSALTDDVDVPDGHYAEDTMKITVVPNRNAIMLAIAFGIAAAKQADAVATAVHGGDHFIYPDCRPGFTQAFEAMQAQALDGYASVRLYTPFVHEPKSAIVTEGERHNTPFADTWSCYKGGEVHCGRCGTCVERREAFHLAGVADPTPYADPEFWRAAVEGR	not soluble
MLKISNSVTLQEWEIQLTPIRAQGNGGQNVNKVATAIHLRFDIHHSSLPEFYKERLLALSDSRITKDGVVIIKAQQFRTQEKNKEDALNRLQELIKAAALQDKKRIKTKPTRASQRRRLDSKNKQGAKKQQRKKVLYLEHHHHHH	not soluble
MSLKLEAYRTLHCDAGWRRFSFLKLIAEDGTTGISEYNECYGSPGLTGVIEGVLEWIIGKNPFSHEKLSAELYARTRQAHGGIAQQAIAAVENALVDLKARSLGVPVYELLGGAVREELPLYWSHCGSYRLPRTAEMLGVPPITSLDDLVSLGKEVREKGFSALKTNIFLFEEQPHMHQPGFARSEGWPALNPERRIINSLKEQLAAFREGAGPELEILLDLNFNYRTEGFLTVCRALDDLGLGWFEMDLYDPAALARIRHALKTPVASCESLFGLRGFRPFFENQSMDVAIVDVPWNGIWQAMKIAGLAESFEVNVAPHNFYGHLSTLMSAHFCAAIPNFRIMEIDIDDVPWKDELVTKSPLIRDGILKIPEGIGWGTELNEEAIAAHPVKNTGDDRKYDRGMGEGHHHHHH	soluble
MTMQHASSAGRRPAVPVYLKIRNAIRDAISNAAYAPGDLLPSETELAKRYATTRATVVHAIQQLVFEGLVERKRGVGSFVAQPKLSSTVDTHRVAYFEQDAFARDLTYEVIGYGKAVVEDHVRDTLRLGRGEPVYRLQRLRLLLGKPIAFELRYLPALVGARLTAEMLARRSVQSLLDEEVGMPITRFLNAVRVALVPAAVARHLQLEKGRPVMVRTHTFLDAADTPLLWGETLYREEYQINYVLTAMQAPDEAVGGRPRKGAGRA	not soluble
MSLDCKIDIIPRVLHFKQPAGTSRGTYTTRKVWYLHFTAPEFPNWVGIGECAPLPNLSCDDLPDYEEVLAKICRQVENQGGKLDMEALCKYPSILFGLETAIRHFFEGSWALWDTPFSRGEAGIPINGLIWMGDFNRMLAQIEKKMEAGFRCIKLKIGAINFEEELALLQHIRSHYSSKEIELRVDANGAFSPTDAMEKLKRLSELDLHSIEQPIRAGQWEEMARLTSESPLPIALDEELIGYNTWEEKQRLLSAIRPQYIIIKPSLHGGLAGGEEWIAEAEKLNIGWWITSALESNIGLNAIAQWCATFQNPLPQGLGTGLLFTDNVEMPLEIRKDCLWFCKEGHHHHHH	soluble
AGRTGRLHLAIECHSCFQWLMPALDAFRGQWPDVALDLSAAFSFAPLPALVRGDLDLVITSDPQALEAVTYLPLFKYELVLAVAESNPLAANRHVMPEQLADQTLITYPVDRQRLDIFTGF	not soluble
KTTVIPESLKILGWVEFTRLEPWGIKTPARIDTGANTSSMSARDINVFKRNGKTWVRFTFDFKKGTAERSIEIERPLVRMVKIKQHDGPSQERPVISMEICLADEIREAEFDLIDRRALNYPVLLGRKALAGYVVVDPARAYLTKAV	not soluble
MKLKHLDKLLAHCHRRRYTAKSTIIYAGDRCETLFFIIKGSVTILIEDDDGREMIIGYLNSGDFFGELGLFEKEGSEQERSAWVRAKVECEVAEISYAKFRELSQQDSEILYTLGSQMADRLRKTTRKVGDLAFLDVTGRVARTLLDLCQQPDAMTHPDGMQIKITRQEIGRIVGCSREMVGRVLKSLEEQGLVHVKGKTMVVFGTR	soluble
MERLSPVFATSKSSNMEVEHWMTSLKEVEKVLDSVEPKLTSSGTKWRVVAQHIKDICSDLNQIFNKEDPRYEVVQAGASAAHDFDVRYLDIHKVRTPHEPLEMRHSKGRKHGREIARLLEKIQKYRQEIEEIKKEYKETDKYRERYDHYKVKLDNLEKKNKDQERIERNQQKFKDAEAAYSSVCADLIQKMETVWKKHVSIFAEAASAVWSTQLQYAKALEAAANPIVPYLQQEEQEEEEEEEAASGTQGRVAEKAYHTNEEKVENSFQKNSAIPPSFRTASEQLTEQSKNINNAKNTSETSPAEDIEA	soluble
